# Experimental data reported in patent US20090286252A1 (NEW YORK UNIVERSITY, published 2009).
# B1: β3-endonexin short form (EnS) expressed from pJG4-5 (other, not shown: large carriers)
# chain: MPVKRSLKLDGLLEENSFDPSKITRKKSVITYSPTTGTCQMSLFASPTSSEEQKHRNGLSNEKRKKLNHPSLTESKESTTKDNDEFMMLLSKVEKLSEEIMEIMQNLSSIQ
# notes: Yeast two-hybrid prey; also called pJG4-5/EnS
# B2: LexA alone (other, UniProt P0A7C2 1-202, looked up)
# chain: MKALTARQQEVFDLIRDHISQTGMPPTRAEIAQRLGFRSPNAAEEHLKALARKGVIEIVSGASRGIRLLQEEEEGLPLVGRVAAGEPLLAQQHIEGHYQVDPSLFKPNADFLLRVSGMSMKDIGIMDGDLLAVHKTQDVRNGQVVVARIDDEVTVKRLKKQGNKVELLPENSEFKPIVVDLRQQSFTIEGLAVGVIRNGDWL
# notes: Negative control bait; also called bait LexA alone (negative control)
# Assays:
# [1] = biological target: full length cTRα (chicken) (UniProt P04625); experiment: cell-based or functional assay
# LexA-hRARα LBD = biological target: T1, LexA-hRARα LBD (human, UniProt P0A7C2 1-202; P10276 154-462, limits assumed); experiment: yeast two-hybrid (data not shown)
# T1 construct: also called LexA-RAR
# T1 sequence (looked up): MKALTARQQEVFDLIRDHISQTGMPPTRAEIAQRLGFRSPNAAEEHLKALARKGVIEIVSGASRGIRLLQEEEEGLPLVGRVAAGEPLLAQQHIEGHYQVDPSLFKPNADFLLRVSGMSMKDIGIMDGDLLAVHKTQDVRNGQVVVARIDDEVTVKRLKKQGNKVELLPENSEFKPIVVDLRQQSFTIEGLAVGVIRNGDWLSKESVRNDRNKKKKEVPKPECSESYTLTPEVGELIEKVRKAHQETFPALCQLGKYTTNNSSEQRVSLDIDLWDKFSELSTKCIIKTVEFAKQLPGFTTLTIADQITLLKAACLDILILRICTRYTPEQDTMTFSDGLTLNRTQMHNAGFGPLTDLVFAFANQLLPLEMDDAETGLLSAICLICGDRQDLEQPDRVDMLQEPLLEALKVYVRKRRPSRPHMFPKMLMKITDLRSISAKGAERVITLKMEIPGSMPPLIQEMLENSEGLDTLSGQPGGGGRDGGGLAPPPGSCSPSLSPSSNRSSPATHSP
# Protocol: (§1) The following receptor baits were used: LexA-cTRα LBD, LexA-hTRβ LBD, LexA-hRARα LBD, LexA-hRXRα LBD, and LexA-hGR LBD. […] Yeast cells harboring appropriate plasmids were grown in selective media with Gal/Raf in the presence or absence of cognate ligand (1 μM T3 for TR, all trans or 9-cis RA for RAR, 9-cis RA for RXR, and 10 μM deoxycorticosterone for GR) overnight before β-galactosidase activity was assayed using o-Nitrophenyl β-D-Galactopyranoside as the substrate. β-galactosidase units are expressed as (O.D. 420 nm×1000)/(minutes of incubation×O.D. 600 nm of yeast suspension).
# LexA-hGR LBD = biological target: T2, LexA-hGR LBD (human, UniProt P0A7C2 1-202; P04150 485-777, limits assumed); experiment: yeast two-hybrid (data not shown)
# T2 construct: also called LexA-GR
# T2 sequence (looked up): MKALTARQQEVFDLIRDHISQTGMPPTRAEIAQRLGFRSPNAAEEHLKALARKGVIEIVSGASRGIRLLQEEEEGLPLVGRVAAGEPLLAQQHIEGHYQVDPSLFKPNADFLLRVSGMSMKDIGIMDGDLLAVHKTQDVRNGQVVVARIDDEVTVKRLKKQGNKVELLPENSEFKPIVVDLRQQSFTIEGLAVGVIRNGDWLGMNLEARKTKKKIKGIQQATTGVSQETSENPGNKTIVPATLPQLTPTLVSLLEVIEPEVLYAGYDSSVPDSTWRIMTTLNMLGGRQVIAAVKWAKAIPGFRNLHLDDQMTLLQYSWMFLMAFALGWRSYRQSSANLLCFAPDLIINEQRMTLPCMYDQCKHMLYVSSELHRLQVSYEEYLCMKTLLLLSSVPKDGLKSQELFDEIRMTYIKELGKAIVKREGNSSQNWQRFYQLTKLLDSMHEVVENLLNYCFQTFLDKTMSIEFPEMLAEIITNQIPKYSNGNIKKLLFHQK
# Protocol: as §1
# LexA-cTRα LBD = biological target: T3, LexA-cTRα LBD (chicken, UniProt P0A7C2 1-202; P04625 120-408, limits assumed); experiment: yeast two-hybrid, β-galactosidase (FIG. 8B)
# T3 construct: also called LexA-TR LBD; LexA-TR
# T3 sequence (looked up): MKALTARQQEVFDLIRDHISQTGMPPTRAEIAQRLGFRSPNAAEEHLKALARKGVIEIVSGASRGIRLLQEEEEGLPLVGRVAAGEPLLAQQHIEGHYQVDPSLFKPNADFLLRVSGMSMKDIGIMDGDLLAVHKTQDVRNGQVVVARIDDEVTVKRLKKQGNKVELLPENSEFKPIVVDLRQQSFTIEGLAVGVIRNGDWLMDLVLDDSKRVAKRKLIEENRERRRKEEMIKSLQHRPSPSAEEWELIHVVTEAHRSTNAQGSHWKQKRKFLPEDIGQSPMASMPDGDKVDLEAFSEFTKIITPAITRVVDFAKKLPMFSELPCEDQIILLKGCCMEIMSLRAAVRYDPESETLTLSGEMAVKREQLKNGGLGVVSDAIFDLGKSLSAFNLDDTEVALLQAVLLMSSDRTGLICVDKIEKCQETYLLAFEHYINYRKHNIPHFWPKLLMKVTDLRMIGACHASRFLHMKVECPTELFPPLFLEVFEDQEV
# Protocol: as §1
# LexA-hRXRα LBD = biological target: T4, LexA-hRXRα LBD (human, UniProt P0A7C2 1-202; P19793 198-462, limits assumed); experiment: yeast two-hybrid, β-galactosidase (FIG. 8B)
# T4 construct: also called LexA-RXR
# T4 sequence (looked up): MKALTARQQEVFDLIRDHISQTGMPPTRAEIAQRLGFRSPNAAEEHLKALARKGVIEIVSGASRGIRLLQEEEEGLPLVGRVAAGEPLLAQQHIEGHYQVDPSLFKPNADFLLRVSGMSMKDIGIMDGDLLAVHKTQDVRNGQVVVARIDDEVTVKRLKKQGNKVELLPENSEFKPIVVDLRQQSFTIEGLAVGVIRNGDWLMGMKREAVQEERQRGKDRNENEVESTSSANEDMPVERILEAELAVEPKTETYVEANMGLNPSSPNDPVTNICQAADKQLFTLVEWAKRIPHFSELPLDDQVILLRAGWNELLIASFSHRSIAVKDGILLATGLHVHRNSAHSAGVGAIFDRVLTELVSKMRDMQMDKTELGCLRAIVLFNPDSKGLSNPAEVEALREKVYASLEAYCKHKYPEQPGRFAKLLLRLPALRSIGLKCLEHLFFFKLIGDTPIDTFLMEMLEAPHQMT
# Protocol: as §1
# B42-cTRα LBD = biological target: T5, B42-cTRα LBD (chicken, UniProt P04625 120-408); experiment: yeast two-hybrid (data not shown)
# T5 construct: also called B42-TR LBD; LBD of TR (fused with B-42)
# T5 sequence (looked up): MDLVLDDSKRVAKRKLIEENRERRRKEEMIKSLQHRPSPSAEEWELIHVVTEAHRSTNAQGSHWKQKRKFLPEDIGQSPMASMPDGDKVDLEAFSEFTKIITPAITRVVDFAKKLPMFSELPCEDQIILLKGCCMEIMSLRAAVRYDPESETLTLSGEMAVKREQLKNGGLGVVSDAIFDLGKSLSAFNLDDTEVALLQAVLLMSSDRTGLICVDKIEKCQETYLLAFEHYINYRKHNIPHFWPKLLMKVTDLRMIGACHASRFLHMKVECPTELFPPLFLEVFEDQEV
# Protocol: as §1
# B42-hRARα LBD = biological target: T6, B42-hRARα LBD (human, UniProt P10276 154-462); experiment: yeast two-hybrid (data not shown)
# T6 construct: also called B42-RAR LBD; LBD of RAR
# T6 sequence (looked up): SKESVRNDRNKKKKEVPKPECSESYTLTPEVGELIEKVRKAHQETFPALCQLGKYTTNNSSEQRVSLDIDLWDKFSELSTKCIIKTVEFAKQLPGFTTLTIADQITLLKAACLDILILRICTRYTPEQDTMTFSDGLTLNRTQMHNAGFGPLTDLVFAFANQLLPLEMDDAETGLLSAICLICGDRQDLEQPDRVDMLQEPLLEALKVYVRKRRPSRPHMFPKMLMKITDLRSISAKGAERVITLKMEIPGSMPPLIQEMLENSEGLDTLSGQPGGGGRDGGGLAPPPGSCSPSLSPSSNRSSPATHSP
# Protocol: as §1
# B42-hRXRα LBD = biological target: T7, B42-hRXRα LBD (human, UniProt P19793 198-462); experiment: yeast two-hybrid (data not shown)
# T7 construct: also called B42-RXR LBD; LBD of RXR (fused with B-42)
# T7 sequence (looked up): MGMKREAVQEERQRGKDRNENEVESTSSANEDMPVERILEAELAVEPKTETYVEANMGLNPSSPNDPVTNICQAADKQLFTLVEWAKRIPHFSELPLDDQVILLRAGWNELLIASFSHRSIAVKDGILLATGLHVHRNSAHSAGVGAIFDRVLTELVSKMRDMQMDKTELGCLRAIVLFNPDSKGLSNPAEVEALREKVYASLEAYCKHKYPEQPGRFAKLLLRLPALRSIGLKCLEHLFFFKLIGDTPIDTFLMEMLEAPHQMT
# Protocol: as §1
molecule,measurement,setting,value
NRIF3 (full length) (from UniProt Q13352 1-177),enhancement of TR-mediated activation of the GH-TRE-tk-CAT reporter in HeLa cells (FIG. 5B),[1],3.5 fold
same,enhancement of TR-mediated activation of the IR-ΔMTV-CAT reporter in HeLa cells (FIG. 5A),[1],2.5 to 3 fold
B1,binding result,LexA-hRARα LBD,no binding
same,binding result,LexA-hGR LBD,no binding
same,binding result,LexA-cTRα LBD,no binding
same,binding result,LexA-hRXRα LBD,no binding
B2,binding result,B42-cTRα LBD,no binding
same,binding result,B42-hRARα LBD,no binding
same,binding result,B42-hRXRα LBD,no binding
